In this assay the target is GPIIb/IIIa protein (UniProt P08514). The experiment in a line: equal mix of wt and RGD1 phage bound to GPIIb/IIIa-coated plate, eluted, phagemid DNA analysis.

B1: phage wtCD59 (CD59-gIII fusion protein displayed on phage) (protein, human, UniProt P13987 26-102, looked up, not shown: small tags and cut ends; large carriers)
chain: LQCYNCPNPTADCKTAVNCSSDFDACLITKAGLQVYNKCWKFEHCNFNDVTTRLRENELTYYCCKKDLCNFNEQLEN
On to B1, for which the clones recovered among 12 picked after binding of an equal phage mix was 1 clones of 12.

The record behind these values is patent publication US20120302492A1.
